# According to patent US20250019440A1 (Zymeworks, published 2025):
# Substitutions are numbered along the chain they refer to.
# T1: Cynomolgus monkey CLDN18 (cynomolgus monkey)
# T1 construct: On transfected HEK293-6E cells; also called Cyno CLDN18; cynomologus monkey CLDN18.2 ortholog
# T1 chain: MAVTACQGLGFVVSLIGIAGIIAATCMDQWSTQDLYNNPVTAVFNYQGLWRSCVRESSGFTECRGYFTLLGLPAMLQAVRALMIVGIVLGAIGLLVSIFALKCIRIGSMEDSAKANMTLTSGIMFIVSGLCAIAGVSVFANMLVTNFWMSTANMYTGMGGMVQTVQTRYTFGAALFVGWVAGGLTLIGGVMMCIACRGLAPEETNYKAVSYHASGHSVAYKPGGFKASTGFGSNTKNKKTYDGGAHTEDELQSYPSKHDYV
# T2: Mouse CLDN18 A2.1 (mouse, UniProt P56857 10-264)
# T2 construct: On transfected HEK293-6E cells; also called Mouse CLDN18 2.1; mouse CLDN18.2 ortholog
# T2 chain: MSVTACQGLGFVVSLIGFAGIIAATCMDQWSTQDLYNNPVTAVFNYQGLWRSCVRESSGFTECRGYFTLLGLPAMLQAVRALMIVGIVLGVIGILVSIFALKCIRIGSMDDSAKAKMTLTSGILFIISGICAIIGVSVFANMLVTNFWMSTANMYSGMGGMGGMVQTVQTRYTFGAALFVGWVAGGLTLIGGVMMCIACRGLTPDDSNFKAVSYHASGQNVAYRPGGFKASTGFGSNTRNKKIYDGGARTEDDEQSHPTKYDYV
# B1: v38740 (other)
# heavy 1: EVQLVESGGGLVQPGGSLRLSCAASGVTFNYYGMSWIRQAPGKGLEWVASITSSGGRIYYPDSVKGRFTISRENTQKTLYLQMNSLRAEDTAVYYCTLDGRDGWVAYWGQGTLVTVSSASTKGPSVFPLAPSSKSTSGGTAALGCLVKDYFPEPVTVSWNSGALTSGVHTFPAVLQSSGLYSLSSVVTVPSSSLGTQTYICNVNHKPSNTKVDKKVEPKSCDKTHTCPPCPAPEAAGGPSVFLFPPKPKDTLMISRTPEVTCVVVSVSHEDPEVKFNWYVDGVEVHNAKTKPREEQYNSTYRVVSVLTVLHQDWLNGKEYKCKVSNKALPAPIEKTISKAKGQPREPQVYVYPPSRDELTKNQVSLTCLVKGFYPSDIAVEWESNGQPENNYKTTPPVLDSDGSFALVSKLTVDKSRWQQGNVFSCSVMHEALHNHYTQKSLSLSPGGGGGSGDRPWNPPTFSPALLVVTEGDNATFTCSFSNTSESFVLNWYRMSPSNQTDKLAAFPEDRSQPGQDARFRVTQLPNGRDFHMSVVRARRNDSGTYLCGAISLAPKAQIKESLRAELRVTE
# light: NFMLTQPHSVSESPGKTVTISCKRNTGNIGSNYVNWYQQHEGSSPTTIIYRNDKRPDGVSDRFSGSIDRSSKSASLTISNLKTEDEADYFCQSYSSGFIFGGGTKLTVLGQPKAAPSVTLFPPSSEELQANKATLVCLISDFYPGAVTVAWKADSSPVKAGVETTTPSKQSNNKYAASSYLSLTPEQWKSHRSYSCQVTHEGSTVEKTVAPTECS
# heavy 2: QVQLVESGGGLVQPGGSLRLSCSVSGIDLSSNPMIWVRQAPGKGLQYIGIIDTDGSTYYADWAKGRFTISKDSTTVYLQINSPRAEDTAVYYCARRLHGSSNGYYDDLWGQGTLVTVSSGGGGSGGGGSGGGGSGGGGSDGQMTQSPSSVSASVGDRVTITCQASQSIYSYLSWYQQKPGQRPKLLIYKASTLASGVPSRFSGSGSGTDFTLTISSVQPEDFATYYCQQGYTVTNVDKNTFGGGTKVEIKAAEPKSSDKTHTCPPCPAPEAAGGPSVFLFPPKPKDTLMISRTPEVTCVVVSVSHEDPEVKFNWYVDGVEVHNAKTKPREEQYNSTYRVVSVLTVLHQDWLNGKEYKCKVSNKALPAPIEKTISKAKGQPREPQVYVLPPSRDELTKNQVSLLCLVKGFYPSDIAVEWESNGQPENNYLTWPPVLDSDGSFFLYSKLTVDKSRWQQGNVFSCSVMHEALHNHYTQKSLSLSPG
# notes: CD3 Fab x Cldn18.2 scFv Fc, wildtype (WT) PD-1 attached to HC1 (C-term)
# B2: v38744 (other)
# heavy 1: EVQLVESGGGLVQPGGSLRLSCAASGVTFNYYGMSWIRQAPGKGLEWVASITSSGGRIYYPDSVKGRFTISRENTQKTLYLQMNSLRAEDTAVYYCTLDGRDGWVAYWGQGTLVTVSSASTKGPSVFPLAPSSKSTSGGTAALGCLVKDYFPEPVTVSWNSGALTSGVHTFPAVLQSSGLYSLSSVVTVPSSSLGTQTYICNVNHKPSNTKVDKKVEPKSCDKTHTCPPCPAPEAAGGPSVFLFPPKPKDTLMISRTPEVTCVVVSVSHEDPEVKFNWYVDGVEVHNAKTKPREEQYNSTYRVVSVLTVLHQDWLNGKEYKCKVSNKALPAPIEKTISKAKGQPREPQVYVYPPSRDELTKNQVSLTCLVKGFYPSDIAVEWESNGQPENNYKTTPPVLDSDGSFALVSKLTVDKSRWQQGNVFSCSVMHEALHNHYTQKSLSLSPGGGGGSGQVQLVESGGGLVQPGGSLRLSCSVSGIDLSSNPMIWVRQAPGKGLQYIGIIDTDGSTYYADWAKGRFTISKDSTTVYLQINSPRAEDTAVYYCARRLHGSSNGYYDDLWGQGTLVTVSSGGGGSGGGGSGGGGSGGGGSDGQMTQSPSSVSASVGDRVTITCQASQSIYSYLSWYQQKPGQRPKLLIYKASTLASGVPSRFSGSGSGTDFTLTISSVQPEDFATYYCQQGYTVTNVDKNTFGGGTKVEIK
# light: NPPTFSPALLVVTEGDNATFTCSFSNTSESFVLNWYRMSPSNQTDKLAAFPEDRSQPGQDARFRVTQLPNGRDFHMSVVRARRNDSGTYLCGAISLAPKAQIKESLRAELRVTEGGGGSGNFMLTQPHSVSESPGKTVTISCKRNTGNIGSNYVNWYQQHEGSSPTTIIYRNDKRPDGVSDRFSGSIDRSSKSASLTISNLKTEDEADYFCQSYSSGFIFGGGTKLTVLGQPKAAPSVTLFPPSSEELQANKATLVCLISDFYPGAVTVAWKADSSPVKAGVETTTPSKQSNNKYAASSYLSLTPEQWKSHRSYSCQVTHEGSTVEKTVAPTECS
# heavy 2: B1 heavy 2
# notes: CD3 Fab with C-term Cldn18.2 scFv x Cldn18.2 scFv Fc with wildtype (WT) PD-1 attached to CD3 LC (N-term)
# B3: v38741 (other)
# heavy 1: B2 heavy 1
# light: NPPTFSPALLVVTEGDNATFTCSFSNTSESFRLVWHRESPGYETDTLASFPEDRSTPLPDARFRVTQLPNGRDFHMSVVRARRNDSGTYVCGAIAFHPVIQIKESLRAELRVTEGGGGSGNFMLTQPHSVSESPGKTVTISCKRNTGNIGSNYVNWYQQHEGSSPTTIIYRNDKRPDGVSDRFSGSIDRSSKSASLTISNLKTEDEADYFCQSYSSGFIFGGGTKLTVLGQPKAAPSVTLFPPSSEELQANKATLVCLISDFYPGAVTVAWKADSSPVKAGVETTTPSKQSNNKYAASSYLSLTPEQWKSHRSYSCQVTHEGSTVEKTVAPTECS
# heavy 2: B1 heavy 2
# B4: v38743 (other)
# heavy 1: B2 heavy 1
# light: B2 light with A100L
# heavy 2: B1 heavy 2
# B5: v37407 (antibody, human IgG1, V domains shown)
# VH: QVQLVESGGGLVQPGGSLRLSCSVSGIDLSSNPMIWVRQAPGKGLEYIGIIDTDGSTYYADWAKGRFTISKDSTTVYLQMNSLRAEDTAVYYCARRLHGSSNGYYDDLWGQGTLVTVSS
# VL: DGQMTQSPSSVSASVGDRVTITCQASQSIYSYLSWYQQKPGQRPKLLIYKASTLASGVPSRFSGSGSGTDFTLTISSVQPEDFATYYCQQGYTVTNVDKNTFGGGTKVEIK
# notes: Humanized, recombinant human IgG1-based monoclonal antibody; also called H4-L4
# B6: v37409 (antibody, human IgG1, V domains shown)
# VH: QVQLVESGGGLVQPGGSLRLSCSVSGIDLSSNPMIWVRQAPGKGLEYIGIIDTDGSTYYADWAKGRFTISKDSSKNTVYLQMNSLRAEDTAVYYCARRLHGSSNGYYDDLWGQGTLVTVSS
# VL: B5 VL
# notes: Humanized, recombinant human IgG1-based monoclonal antibody; also called H2-L4
# B7: v37411 (antibody, human IgG1, V domains shown)
# VH: B5 VH with E46Q, M80I, L83P
# VL: B5 VL
# notes: Humanized, recombinant human IgG1-based monoclonal antibody; also called H5-L4
# B8: v37408 (antibody, human IgG1, V domains shown)
# VH: B5 VH
# VL: B5 VL with F83A, I110V
# notes: Humanized, recombinant human IgG1-based monoclonal antibody; also called H4-L2
# B9: v37410 (antibody, human IgG1, V domains shown)
# VH: B6 VH with E46Q
# VL: B5 VL
# notes: Humanized, recombinant human IgG1-based monoclonal antibody; also called H3-L4
# Target: Human CD3 (recombinant) (human)
# Sequence (chain, as listed by the source): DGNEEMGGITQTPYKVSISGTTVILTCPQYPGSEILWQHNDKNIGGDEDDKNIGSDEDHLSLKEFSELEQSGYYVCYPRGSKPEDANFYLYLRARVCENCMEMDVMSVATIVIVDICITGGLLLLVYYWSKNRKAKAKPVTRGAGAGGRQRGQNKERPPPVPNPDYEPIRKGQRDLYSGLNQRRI
# Assay: SPR, CD3 amine-coupled, variant as analyte, 1:1 model
row,Kd,Binder
1,30 nM,B1
2,190 nM,B2
3,18 nM,B3
4,120 nM,B4

# Target: T3, Human CLDN18.1 (human, UniProt P56856 1-261)
# T3 construct: On transfected HEK293-6E cells
# T3 sequence (P56856 whole entry): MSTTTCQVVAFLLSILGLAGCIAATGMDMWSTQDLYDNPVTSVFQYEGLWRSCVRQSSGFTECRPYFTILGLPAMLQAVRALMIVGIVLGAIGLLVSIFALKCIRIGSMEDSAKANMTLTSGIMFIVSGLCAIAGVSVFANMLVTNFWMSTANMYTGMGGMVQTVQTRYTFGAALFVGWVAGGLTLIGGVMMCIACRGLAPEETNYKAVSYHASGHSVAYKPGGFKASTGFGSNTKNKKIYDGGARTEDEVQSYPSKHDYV
# Assay: FACS, Expi293F supernatants on transfected HEK293-6E cells
row,binding result,Binder
1,no binding,B5
2,no binding,B6
3,no binding,B7
4,no binding,B8
5,no binding,B9

# Target: T4, Human PD-L1 (human, UniProt Q9NZQ7 19-239)
# T4 construct: Amine-coupled to a CM5 chip for SPR; also called recombinant human PD-L1
# T4 sequence (Q9NZQ7 19-239 limits assumed): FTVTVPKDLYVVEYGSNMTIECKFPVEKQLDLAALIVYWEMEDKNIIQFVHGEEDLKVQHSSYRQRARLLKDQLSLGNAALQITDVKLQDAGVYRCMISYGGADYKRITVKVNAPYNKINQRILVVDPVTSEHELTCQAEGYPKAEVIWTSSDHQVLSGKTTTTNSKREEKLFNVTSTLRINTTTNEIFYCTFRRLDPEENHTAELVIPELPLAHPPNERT
# Assay: SPR, PD-L1 amine-coupled, variant as analyte, 1:1 model
row,Kd,Binder
1,510 nM,B1
2,1900 nM,B2
3,95 nM,B3
4,220 nM,B4

# Target: T5, Human CLDN18.2 (human)
# T5 construct: On transfected HEK293-6E cells; also called Claudin18.2
# Assay: FACS on transfected HEK293-6E cells, 4 parameter logistic fit
Bmax,EC50,Binder
2040,1.54 nM,B5
1960,1.22 nM,B6
2170,1.05 nM,B7
2190,1.87 nM,B8
1910,0.97 nM,B9

# Target: T1, Cynomolgus monkey CLDN18
# Assay: as above
Bmax,EC50,Binder
1410,0.24 nM,B5
1500,0.35 nM,B6
1730,0.37 nM,B7
1520,0.36 nM,B8
1500,0.31 nM,B9

# Target: T2, Mouse CLDN18 A2.1
# Assay: as above
Bmax,EC50,Binder
1540,0.8 nM,B5
1530,0.89 nM,B6
1790,1.03 nM,B7
1920,2.65 nM,B8
1690,1.02 nM,B9
